Experimental data: patent CN116693676A
Changes are numbered by the printed parent chain.

B1: Anti-MP-22A9mut1 (antibody, mouse IgG1, kappa, V domains shown)
VH: QAYLQQSGAELVRSGASVKMSCKASGYTFTTYNMHWVKQTPGQGLEWIGYVHPGYGITYYSQKFKGKATLTADTSSSTAYMILSSLTSEDSAVYFCTRSYYGYSYWFFDVWGAGTTVTVSS
VL: NIVMTQSPKSVSMSVGERVTLNCKASENVGSYVAWYQQKPDRSPKLLIHGASNRYTGVPDRFTGSGSTTDFTLTISSVQAEDLADYHCGQTYNYPYTFGGGTKLEIKR
B2: Anti-MP-22A9mut4 (antibody, mouse IgG1, kappa, V domains shown)
VH: B1 VH with I82L, L86I
VL: B1 VL
B3: Anti-MP-22A9mut6 (antibody, mouse IgG1, kappa, V domains shown)
VH: B1 VH with I82L, L86I
VL: B1 VL with I75L
B4: Anti-MP-22A9mut3 (antibody, mouse IgG1, kappa, V domains shown)
VH: B1 VH with L70I, I82L
VL: B1 VL
B5: Anti-MP-22A9mut2 (antibody, mouse IgG1, kappa, V domains shown)
VH: B1 VH with I82L
VL: B1 VL
B6: Anti-MP-22A9mut5 (antibody, mouse IgG1, kappa, V domains shown)
VH: B1 VH with I82L, L86I
VL: B1 VL with L73I

Each molecule was assayed against 肺炎支原体天然抗原(购自Microbix) (Mycoplasma pneumoniae) (assay: indirect ELISA, antigen coated at 2 ug/ml, antibody 15 ng/ml).

Row | OD450 (参考630nm) | Molecule
1 | 1.32 OD | 对照 (antibody)
2 | 1.92 OD | B1
3 | 1.98 OD | B2
4 | 2.01 OD | B3
5 | 2.16 OD | B4
6 | 2.23 OD | B5
7 | 2.03 OD | B6

The molecules below were run against 肺炎支原体天然抗原(购自Microbix) (Mycoplasma pneumoniae) (assay: indirect ELISA, antigen coated at 2 ug/ml, antibody 7.5 ng/ml).

Row | OD450 (参考630nm) | Molecule
8 | 0.629 OD | 对照 (antibody)
9 | 1.39 OD | B1
10 | 1.47 OD | B2
11 | 1.42 OD | B3
12 | 1.67 OD | B4
13 | 1.6 OD | B5
14 | 1.68 OD | B6

What follows are molecules tested against 肺炎支原体天然抗原(购自Microbix) (Mycoplasma pneumoniae) (assay: indirect ELISA, antigen coated at 2 ug/ml, antibody 0.94 ng/ml).

Row | OD450 (参考630nm) | Molecule
15 | 0.118 OD | 对照 (antibody)
16 | 0.205 OD | B1
17 | 0.207 OD | B2
18 | 0.207 OD | B3
19 | 0.359 OD | B4
20 | 0.386 OD | B5
21 | 0.315 OD | B6

Each molecule was assayed against 肺炎支原体天然抗原(购自Microbix) (Mycoplasma pneumoniae) (assay: indirect ELISA, antigen coated at 2 ug/ml, antibody 1.88 ng/ml).

Row | OD450 (参考630nm) | Molecule
22 | 0.212 OD | 对照 (antibody)
23 | 0.391 OD | B1
24 | 0.401 OD | B2
25 | 0.339 OD | B3
26 | 0.512 OD | B4
27 | 0.534 OD | B5
28 | 0.536 OD | B6

These molecules were tested against 肺炎支原体天然抗原(购自Microbix) (Mycoplasma pneumoniae) (assay: indirect ELISA, antigen coated at 2 ug/ml, antibody 3.75 ng/ml).

Row | OD450 (参考630nm) | Molecule
29 | 0.403 OD | 对照 (antibody)
30 | 0.619 OD | B1
31 | 0.758 OD | B2
32 | 0.627 OD | B3
33 | 0.906 OD | B4
34 | 0.899 OD | B5
35 | 0.814 OD | B6

Each molecule was assayed against 肺炎支原体天然抗原(购自Microbix) (Mycoplasma pneumoniae) (assay: indirect ELISA, antigen coated at 2 ug/ml, antibody 0 ng/ml (blank)).

Row | OD450 (参考630nm) | Molecule
36 | 0.015 OD | 对照 (antibody)
37 | 0.013 OD | B1
38 | 0.012 OD | B2
39 | 0.011 OD | B3
40 | 0.016 OD | B4
41 | 0.021 OD | B5
42 | 0.011 OD | B6
